Results published in PMC11387744.

Molecular target: KDM2B^F-box-LRRs/SKP1 dimer (UniProt Q8NHM5)
Experiment: ITC

Sequence of KDM2B^F-box-LRRs/SKP1 dimer (Q8NHM5 1059-1336, chain 1 of 2): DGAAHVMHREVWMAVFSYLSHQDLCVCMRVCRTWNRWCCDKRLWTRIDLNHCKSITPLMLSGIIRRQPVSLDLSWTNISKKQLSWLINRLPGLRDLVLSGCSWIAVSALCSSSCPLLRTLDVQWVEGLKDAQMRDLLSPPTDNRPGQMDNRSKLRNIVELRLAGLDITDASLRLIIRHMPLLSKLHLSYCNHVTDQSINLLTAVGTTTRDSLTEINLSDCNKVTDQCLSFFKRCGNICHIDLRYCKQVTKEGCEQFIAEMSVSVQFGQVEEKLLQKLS
Sequence of KDM2B^F-box-LRRs/SKP1 dimer (P63208 2-163, chain 2 of 2, further chain): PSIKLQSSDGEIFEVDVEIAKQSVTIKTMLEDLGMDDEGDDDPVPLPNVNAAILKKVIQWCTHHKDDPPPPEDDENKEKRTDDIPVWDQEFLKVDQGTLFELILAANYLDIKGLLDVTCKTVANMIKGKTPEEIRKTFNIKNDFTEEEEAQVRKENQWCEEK

Substance	fold reduction of the affinity against the wild-type pair [fold]
BCOR^N1607 (D/E on Poly-D/E^2nd (1607–1611) mutated to Ala)/PCGF1^RAWUL (from UniProt Q6W2J9 1607-1755; Q9BSM1 150-255) (complex)	> 2.5
BCOR^N1607 (D/E on Poly-D/E^3rd (1624–1631) mutated to Ala)/PCGF1^RAWUL (from UniProt Q6W2J9 1607-1755; Q9BSM1 150-255) (complex)	> 12
